The DeepSol protein solubility set

assay: soluble on expression in E. coli; label from the status in PepcDB or PDB records

Row | Sequence | soluble on expression in E. coli
1 | MIKAIIFDVDETLVYYEGYSLREWYEKVGLPAMKELGVIVDWEIFRKMARGELPRSYVEKFQINHVKFWKALDEANRKYREELLKEGKVHTFKDVEALKEIKNLGIKLAAVSNASQDNTELVLRAFDLLKYFDVVYGKDYTYLDGVKPNPYLINKALKALNVEPKEAILVGDSELDIIAGKRAKLRVVQIVREKRVEGADVYINSLWELVDKLKTGEL | soluble
2 | MTEFSASLAPQVEAFLRYLSIERQLSPLTVTSYRRQLSALMEIGEQMGLAHWQTLDAAQVRSLVSRSKRAGLHASSLALRLSALRSFLNWLVSQGVLPANPAKGVSTPRSGRHLPKNIDVDEVNKLLSIDLNDPLAVRDRAMLEVMYGAGLRLSELVGMNCKHVDLASGDVWVMGKGSKERKVPLGKTAVTWLQHWLALRELFEPQDDAIFLANTGKRISARNVQKRFAEWGVKQGVSSHIHPHKLRHSFATHMLESSGDLRAVQELLGHANLTTTQIYTHLDFQHLATVYDAAHPRAKRGKS | not soluble
3 | MSDTQQVPAIVILGQGALDTARRVQARYPGALVHGLAGRVEADRSYTDFGDTLRELYCADRPIVALCAAGIVIRSLAPLLQRKGAEPPVLALAEDGSAVVPLLGGLAGVNRLAREIGEVLAVAPAITTSGELRFGTCVLNPPAGYVLADLEQGKRFVADLLGGQPVRVEGAADWLDAARLPRDPEAALAIHVTPSARAPRAEELLIHPRCVLAALEPADAAADAVRQALVDAGLAAAALGGLLADSARMADPRLQAAADALGVPLRFLPQADPAARLRQALPAAEQVGDRLAVAAAPLAMDRIGQRRGRLTVIGLGPGCAELMVPAARRALDEAEDILGYQTYVDMAGPFRAGQVLHGSDNREELQRARHAFELAATGRAVVLVSSGDPGVFAMAAAVLEALHGAGEPAWDAVELRIFPGVSAALATAARAGAPLGHDFCVLSLSDNLKPWEVIERRLDLAGAADLAMAFYNPISRARPWQLGRALEIVARHRSPQTLVVLGRDIGRPGERLLRTTLGELRAEQVDMRTLVIIGSSTTRSFPRADGEAWVYTPRWYPSE | not soluble
4 | QVPILHRDADFLLRALQPDDFVRTSRYENANREHLAPWEPLRDPGYFSVDNARARTLLQVASMDEGEALLLLLLDPDDGEVLGRCSYTNIVRGVFQACHLGFSLAAAAQGRGLMARALRVANRYCFEQLGLHRIMASHLPRNARSERLLESLGFEKEGYARAYLKIAGVWEDHVLRALVDAPR | not soluble
5 | MSSGFGGEKEEEITQKTAKSSEKAIVPKYNISDSYYKMVLPFKAGKARGLTTEQLNTRLDIDEFETGLMRLAQDSFSTDDYLFQEGQYLDEDTVLSWLARKKTGSDLKKAEKEDKNFKNEGLNPALPSSGSTEEKNESSPIYLASMLEHDYLVRKDKNSIQLGGVMIGLALNSVYYYREKTGDPQKEVEIKDSTLRQQGEKIAQEVINRLRKKDNLKNVPITVALYKQASKTSIVPGNFIAKTEVKAGSTDISNWDDINEKYVFYPADTTTAEKYPDDTEVFKRFKNSIEEYFPNYTGVVGTALYENDEMKKMKIDIPMQFYGKSEVVAFTQFLTGEVMDYYSKSSVDVEVNITSSDGQEAVIIRNAGDKEPTVHIYDLEHHHHHH | soluble
6 | MSGAGHSLNSDPVTTIATSSSEPVTSPSSASHVPVQTAPASHGAPSSVASQPPASVDGKAGAPDEARTASSASNPQGSEHPGSVDPAATTTAATTSASTTSITSTAATTTTTTTTGTTATGRVSPTIPPETLFHDAIKRCNNCLFLIRKLRNKQDHIARLFLDTSGNDQAEFNSAFQNYKDFGLMVHEVMMFYDKLDHIARHLPKALPPIDNINLMRTLYTQEHTMCHININNLLEKMIDCGNWNEGNFQTFFYLSELLRCGSTRKYSNLPEQRLVPPAMFHSQATNSHAAFEHAFNGLRKEIANKSLGIYPKVLQRTTCSLIIEFLFGCGGAKPGEKNTDKEIVYTIKFLIIERNGSIEYINIMAPTEDWHMVNDYAIPTINPFAPSRYEVYRRLTKQANIHLFNCFAQNRWTAGTLFHFISLYGKFRELFTTKCRSCKQVLSRKNFLPPLIFDIRNPNNAAHEVCR | not soluble
7 | MFEINKQIGIYIHFPWCVRKCPYCDFNSHPIKDDSYLSEQYYQKLIADFDTHLDDLQAREVISIFIGGGTPSLFKAEYLDKVLQHITKNTKISINCEITLEMNPGTVERGSILSYQNIGINRISLGVQSFQDDKLKILGRIHNCENVYTTIDEIKNSKISNFNIDIMHGLPNQSFDDGIFDITQAIAMQPTHISWYQLTIEPNTLFAAKRPKFPDEEILESIEIAGKEALAHAGFKQYEVSAFAKNTLRSIHNSNYWMFGDYIGIGAGAHSKITNLKTKQIKRVWKHKHPKIYTQTDKFIKDSNIVTQDEIIYEFMLNTLRLKNGFKLSEFEQQTFLSSNIISQKLQLGIDKGLLELNANQIKPTAKGYLFLNDCINIFS | not soluble
8 | MAHHHHHHMAAVTQQGNDTRKLRCNVYVASLPLDFDDDQLFDLFSPYGRISSARIMRSKGARQSRGYGFVLFRHASSAEKAIDSLVGYVIGGSRIQVRLAHPEASVAYSGQRGSRSGNSTPGALPEKTLPAASGVITPPPPSSAIISHPNDSGMMVQTYPITTMYPTMYPSVVPQIIAQPQAPVPAAMQQVVFLPQYAQQSNQSTPPTFYMMVPDAMQAVPPTLS | soluble
9 | MNKKIGITLGDPAGIGPELILKISKHFKEKFTYVIYGEEKTLLEASKLTGIKLNYKKIEKVEEAKERGVYLIDLNVLKVPVVEPSVSSGKAAVAYLARAVADAIRGNIHGILTMPINKFWAKKAGFQYEGQTEFLAKASGTKDYAMMMYSEKLKVVLLTTHIPLKDVPNYVKKEEILKKVRLIRKEFLEKFKFEPLIKVLGLNPHAGEMGELGREEIEEIIPAVEEAKKEGIKVVGPLVPDVAFINPSEEDVFLCMYHDQGLIPFKMLAFDEGVNFTLGLPFIRTSPDHGTAYDIAWKNKARESSSLHALRLIEDLLDKI | soluble
10 | MRPSSRSAGRRTSMRLTTRDFDRTGRPLRFTELGFGSSPLGNLYRAISEEEAQALLERAWAGGIRYFDTAPLYGYGLAEERLGRFLAGHPRSDYVLSTKVGRLLRPVEPGEARDGLGKFFEVPERKERFDYGYDGVMRSLEASLDRLGLDRVDVLYAHDLDLFTHGSQEALEARLAEFMAGGYRALVELRDQGVISAFGAGVNEWQPCQWLAERGEFDLFLLAGRYTLLEQEALESFLPLAEERGIGIVIGGPYNSGVLATGPKPGSFYDYRLAPQAVLDRVAQIHTICERWGVRMFEAAFQFPLRHPAVLSVIPGPQSVGEVMENRIAADAELPPGLWEDLKVAGLLRPDAPV | not soluble
11 | SNAKNRLGTKALNFTYTLDSGVKGTLYQFPAEYTLLFINNPGCHACAEMIEGLKASPVINGFTAAKKLKVLSIYPDEELDEWKKHRNDFAKEWTNGYDKELVIKNKNLYDLRAIPTLYLLDKNKTVLLKDATLQKVEQYLAE | soluble
12 | MGSDKIHHHHHHMTRYRFFHTADIHLGKTYRTSTGEAERYEDFFRMLGSIVSDAIAARVDFVLIAGDLFHTGQILPRTFARTIETLQPLKNAGIPCIAVEGNHDWIHRRDSISWMEALSQMGYIHLLRPSRTETGGYRFSPFDYEQGMGGHIEVNGVNIYGLGYIGTQAGAHVARICEAITTTNNILLFHVGVWTYSPVEIGNMKPEEALPLADVFDYVALGHGHKPYIIATPEGRAYAFNPGSPECVNFGEEKYDKGYYLVTVNDGVYTHEFRPTNPRPMLVTTIDLDGAGDAETALTRFRNVVAAKIASFSDDRQPLLEIKLTGRVGFHPFELGRERLRLALEEICNPLHVEIKNHLSLVTAGGGAESEKKSLAEIEREVLRELISAKSEYKGREDELVRLSLAIRDQVLKGETDGEELLGLLMREPA | not soluble
13 | ALENLQVEASCSVCLEYLKEPVIIECGHNFCKACITRWWEDLERDFPCPVC | soluble
14 | MTAEILVVGSILPSDKFFCFLMGPAPVFPNSRKPATLDANSDEQTLRPYFKTKVEQAEQTVAEKSINVRRLMAQQKELNGKVRLLKEEISHLHEQGSHVGEVCKAMDKKKVLVKNHPDGKYIVDVAASVDISTLAAGTRVALRADNYAIHEVLPSKVDPLVSLMMVEKVPDSTYEMVGGLDTQIKEIKEVIELPVKHPELFDALGIAQPKGVLLYGPPGTGKTLLARAVAHHTECTFIRVSGSELVQKFIGEGARMVRELFVMAREHAPSIIFMDEIDSIGSSRVEGSRGGDSEVQRTMLELLNQLDGFEATKNIKVIMATNRIDILDSALLRPGRIDRKIEFPAPDEKARAQILKIHSRKMNLMRGIRMDKIAEQIPGASGAEVKSVCTEAGMFALRERRIHVTQEDFEMAVGKVMQKDSEKNMSIKKLWK | not soluble
15 | MEEGVNMDIRPTRIELIRTRRRIRLAKKGLDLLKMKRSALIYEFLQISRTIRGMKENLRKEVVEALNIIKVASVLEGSLALERIANMSSDSRINVNSRNVMGVNIPTLEVSYNLSILSDVYRTVSVPVAIDDSIRRFQKLFYDLILIVEKENSLRNLLMEIDRTKRRSNAIENILIPRLEYQAKMIKMTLDERERDTFTTLKTIKKKIEAENDLEHHHHHH | not soluble
16 | MSLEKMEDHFILCGYGLMGREIIKELPKDKVVVIDSDIGKVSAAREDGYVAVHGDATDDFTLEKAGIGKAKALICCMSDASNAFAILTAKELNPRIKTVAILRSPDAEKKMRRVGVDILLSPYRDAAKKIISLLSEKAVAEFVETVISGAKSLNLEKVVADEYMDGKTLRELDLRRRTGCIVVAVVRRGDVILPEADTRLEKGDILYILCSGEAPLELEGHHHHHH | soluble
17 | EVQLQQSGPELVKPGSSVKISCKASRNTFTDYNLDWVKQSHGKTLEWIGNVYPNNGVTGYNQKFRGKATLTVDKSSSTAYMELHSLTSEDSAVYYCALYYYDVSYWGQGTLVTVSSAKTTPPSVYPLAPGSAAQTNSVTLGCLVKGYFPEPVTVTWNSGSLSSGVHTFPAVLQSDLYTLSSSVTVPSSTWPSQSVTCNVAHPASSTAVDKKIAPA | soluble
18 | SDLCQLFVEQLFGFQDPASLHVLINEIPCARKNLISLRRFSLLIAEPQWFTGSIYDNLVLNHRNVPNKIIIEQLKNVGLADKIIQLPEGLRTILYEWQDVFTLVELTKLMLVRALLLQPELIVIDRAFDILNHQEVNEMMELVLSLKNTLLAIVSQRSDFNYLNNRLVISS | not soluble
19 | MSLAKASAESLGGTVASEESIASYIGAGILSSGGNAVDAAVATSLALTVLIPHLGGVGGDFFMLYRSPEGRVFFVNGSGFAPRRLTREEVLGRGLQEIPESGPLSPTTPGYLAGLYHSWRSFGTMEWASLVKPARLLASRGFPLPPSTARSLKLRRECLEADPGSREAVLKTLPREEGSPARLPGLAALLSGVEEDPLYLYQGEPAEALEEYLASIGGVMGAEDLAGTRGFTAEPLYSEYRGWKVWEMPPNTQGVTTLHLLMLLEEEELPEPFSPERVDILAGLARMAYSIRDRYVGDPRYMPIDPHELARKETLLKLLGQEESNGSKATGDTTFFAVADREGGIVAGIQSLFYPWGSCVTEPRFQVTLNNRARGFTLKEGLPSTLRPGAFPLHTLSSVIMEQRERVIALGASGGHLRPQQHALFVTNIVDYGMNVLDAINAPRAVWDPGRGEILCEEGFGCRPSWRKVERIGVANAVEVAGSVKRGYTDMRGDGLPAVEGHHHHHH | not soluble
